Patent US20250333486A1 (NATIONAL HEALTH RESEARCH INSTITUTES, published 2025)
Substitutions are numbered along the chain they refer to. Names may count otherwise.

How the values were obtained:
[1] = biological target: T1, CD91, cell-surface receptor of eHSP90α, on PANC-1 cells (UniProt Q07954 20-4544, limits assumed); assay: proximity ligation assay (PLA) in PANC-1 cells, 15 µg/ml rHSP90α, with or without 10 µg/ml control IgG, Clone-2 or Clone-6 [d]
T1 construct: whole, on cells; Endogenous receptor on human PANC-1 cells, detected by proximity ligation assay; also called CD91/LRP-1
Experimental: PANC-1 cells seeded onto glass coverslips at a density of 2×10⁵ cells per 22×22-mm coverslip were incubated 16 h with 0.5% serum-containing medium at 37° C. plus a 5% CO₂ humidified atmosphere. The cells were then added with PBS or 15 μg/ml of rHSP90α in the absence or presence of 10 μg/ml of control IgG or the tested anti-HSP90α antibody for another 24-h incubation. The treated cells were then fixed with 3% paraformaldehyde and blocked with the blocking solution provided in the Duolink in situ PLA kit (Olink Bioscience, Uppsala, Sweden). Furthermore, the cell samples were incubated overnight at 4° C. with anti-CD91 antibody (1:80, cat. #550495, BD Biosciences, San Jose, CA, USA) mixed with anti-HSP90α antibody (1:80, cat. #AHP-1339, AbD Serotec, Raleigh, NC, USA) or anti-IKKα antibody (1:80, cat. #3285, Epitomics Co., Burlingame, CA, USA). After washed trice with Tris-buffered saline plus 0.05% Tween 20, the cell samples were incubated with PLA probes for the subsequent ligation and amplification procedure according to the manufacturer's instructions for the Duolink in situ PLA kit. Finally, nuclei were counterstained with 4′,6′-diamidino-2-phenylindole (DAPI; Sigma-Aldrich). Images were photographed and analyzed using Leica TCS SP5 II confocal microscope and LAS AF Lite 4.0 software (Leica, Wetzlar, Germany).

[2] = biological target: T2, recombinant 732-amino acid full-length human HSP90α (rHSP90α; PeproTech) (human, UniProt P07900 1-732, limits assumed); assay: SPR, Biacore T200, fitted to a 1:1 interaction model [b]
T2 construct: Bought protein used as immunogen, ELISA coat (12.5 ng/ml), Biacore analyte and cell stimulus; also called recombinant human HSP90α; eHSP90α
Experimental: (§1) To measure the HSP90α-binding characteristics of anti-HSP90α antibodies, binding kinetic assays were performed using Biacore T200 (Cytiva Co., Marlborough, MA, USA). The interested anti-HSP90α antibodies were applied onto Protein A Series S sensor chips as ligands to achieve approximately 3000˜5000 response units. A series of concentrations of rHSP90α (1.5625-100 nM) in HBS-EP+ buffer were injected over the chip surface. The association was monitored for 60 sec, and the final dissociation time was 1500 sec.

[3] = biological target: T3, EDKEEEKEKE; assay: peptide-scanning ELISA on plates coated with 10-a.a. peptides [b]
T3 construct: HSP90α a.a
T3 peptide: EDKEEEKEKE
Description: (§2) At first, the domain scanning strategy was used to roughly delineate the HSP90α region responsible for the binding with our prepared antibodies. The above-mentioned full-length HSP90α and its 3 truncated fragments were employed to coat 96-well ELISA plates for assaying the binding activities of the tested mouse monoclonal antibodies. […] Therefore, in peptide scanning strategy, a 132 peptide library was synthesized by Mimotopes Pty. Ltd. (Melbourne, Victoria, Australia), consisting of a series of 10-a.a. peptides offset by 2 a.a. to span the sequence of the a.a. […] This series of peptides were used to coat 96-well ELISA plates for assaying the binding activities of the tested antibodies. […] These peptides were subjected to ELISA as described above.

[4] = biological target: T4, KPEIEDVGSD; assay: as above
T4 construct: HSP90α a.a
T4 peptide: KPEIEDVGSD
Description: as §2

[5] = biological target: T5, EIEDVGSDEE; assay: as above
T5 construct: HSP90α a.a
T5 peptide: EIEDVGSDEE
Description: as §2

[6] = biological target: T6, EDVGSDEEEE; assay: as above
T6 construct: HSP90α a.a
T6 peptide: EDVGSDEEEE
Description: as §2

[7] = biological target: T7, VGSDEEEEKK; assay: as above
T7 construct: HSP90α a.a
T7 peptide: VGSDEEEEKK
Description: as §2

[8] = biological target: T8, DKEVSDDEAE; assay: as above
T8 construct: HSP90α a.a
T8 peptide: DKEVSDDEAE
Description: as §2

[9] = biological target: T2, recombinant 732-amino acid full-length …; assay: SPR, Biacore T200; antibody captured on Protein A chip, rHSP90α 1.5625-100 nM as analyte; 1:1 model
Experimental: as §1

[10] = biological target: T9, a.a. 630~732; assay: domain-scanning ELISA on plates coated with full-length or truncated His-tagged HSP90α [a]
T9 construct: not shown: left out of the chain
Description: as §2
As listed in the above Table 3, HH01 antibody is capable of binding specifically to the human HSP90α with novel amino acid (a.a.) sequences in the complementarity determining regions (CDRs), and therefore we intended to identify which region of HSP90α was bound by HH01 antibody. In a preliminary study, we employed the strategy of HSP90α domain scanning to delineate the HSP90α region responsible for the binding with Clone-2 antibody. […] Subsequently, the binding activities of Clone-2 antibody to the full-length and truncated HSP90α were assayed by a conventional ELISA method.

[11] = biological target: T10, KEKEEKESED; assay: peptide-scanning ELISA on plates coated with 10-a.a. peptides [c]
T10 construct: HSP90α a.a
T10 peptide: KEKEEKESED
Description: as §2

[12] = biological target: T11, SDEEEEKKDG; assay: as above
T11 construct: HSP90α a.a
T11 peptide: SDEEEEKKDG
Description: as §2

[13] = biological target: T12, EVSDDEAEEK; assay: as above
T12 construct: HSP90α a.a
T12 peptide: EVSDDEAEEK
Description: as §2

T1 sequence (Q07954 20-4544 limits assumed): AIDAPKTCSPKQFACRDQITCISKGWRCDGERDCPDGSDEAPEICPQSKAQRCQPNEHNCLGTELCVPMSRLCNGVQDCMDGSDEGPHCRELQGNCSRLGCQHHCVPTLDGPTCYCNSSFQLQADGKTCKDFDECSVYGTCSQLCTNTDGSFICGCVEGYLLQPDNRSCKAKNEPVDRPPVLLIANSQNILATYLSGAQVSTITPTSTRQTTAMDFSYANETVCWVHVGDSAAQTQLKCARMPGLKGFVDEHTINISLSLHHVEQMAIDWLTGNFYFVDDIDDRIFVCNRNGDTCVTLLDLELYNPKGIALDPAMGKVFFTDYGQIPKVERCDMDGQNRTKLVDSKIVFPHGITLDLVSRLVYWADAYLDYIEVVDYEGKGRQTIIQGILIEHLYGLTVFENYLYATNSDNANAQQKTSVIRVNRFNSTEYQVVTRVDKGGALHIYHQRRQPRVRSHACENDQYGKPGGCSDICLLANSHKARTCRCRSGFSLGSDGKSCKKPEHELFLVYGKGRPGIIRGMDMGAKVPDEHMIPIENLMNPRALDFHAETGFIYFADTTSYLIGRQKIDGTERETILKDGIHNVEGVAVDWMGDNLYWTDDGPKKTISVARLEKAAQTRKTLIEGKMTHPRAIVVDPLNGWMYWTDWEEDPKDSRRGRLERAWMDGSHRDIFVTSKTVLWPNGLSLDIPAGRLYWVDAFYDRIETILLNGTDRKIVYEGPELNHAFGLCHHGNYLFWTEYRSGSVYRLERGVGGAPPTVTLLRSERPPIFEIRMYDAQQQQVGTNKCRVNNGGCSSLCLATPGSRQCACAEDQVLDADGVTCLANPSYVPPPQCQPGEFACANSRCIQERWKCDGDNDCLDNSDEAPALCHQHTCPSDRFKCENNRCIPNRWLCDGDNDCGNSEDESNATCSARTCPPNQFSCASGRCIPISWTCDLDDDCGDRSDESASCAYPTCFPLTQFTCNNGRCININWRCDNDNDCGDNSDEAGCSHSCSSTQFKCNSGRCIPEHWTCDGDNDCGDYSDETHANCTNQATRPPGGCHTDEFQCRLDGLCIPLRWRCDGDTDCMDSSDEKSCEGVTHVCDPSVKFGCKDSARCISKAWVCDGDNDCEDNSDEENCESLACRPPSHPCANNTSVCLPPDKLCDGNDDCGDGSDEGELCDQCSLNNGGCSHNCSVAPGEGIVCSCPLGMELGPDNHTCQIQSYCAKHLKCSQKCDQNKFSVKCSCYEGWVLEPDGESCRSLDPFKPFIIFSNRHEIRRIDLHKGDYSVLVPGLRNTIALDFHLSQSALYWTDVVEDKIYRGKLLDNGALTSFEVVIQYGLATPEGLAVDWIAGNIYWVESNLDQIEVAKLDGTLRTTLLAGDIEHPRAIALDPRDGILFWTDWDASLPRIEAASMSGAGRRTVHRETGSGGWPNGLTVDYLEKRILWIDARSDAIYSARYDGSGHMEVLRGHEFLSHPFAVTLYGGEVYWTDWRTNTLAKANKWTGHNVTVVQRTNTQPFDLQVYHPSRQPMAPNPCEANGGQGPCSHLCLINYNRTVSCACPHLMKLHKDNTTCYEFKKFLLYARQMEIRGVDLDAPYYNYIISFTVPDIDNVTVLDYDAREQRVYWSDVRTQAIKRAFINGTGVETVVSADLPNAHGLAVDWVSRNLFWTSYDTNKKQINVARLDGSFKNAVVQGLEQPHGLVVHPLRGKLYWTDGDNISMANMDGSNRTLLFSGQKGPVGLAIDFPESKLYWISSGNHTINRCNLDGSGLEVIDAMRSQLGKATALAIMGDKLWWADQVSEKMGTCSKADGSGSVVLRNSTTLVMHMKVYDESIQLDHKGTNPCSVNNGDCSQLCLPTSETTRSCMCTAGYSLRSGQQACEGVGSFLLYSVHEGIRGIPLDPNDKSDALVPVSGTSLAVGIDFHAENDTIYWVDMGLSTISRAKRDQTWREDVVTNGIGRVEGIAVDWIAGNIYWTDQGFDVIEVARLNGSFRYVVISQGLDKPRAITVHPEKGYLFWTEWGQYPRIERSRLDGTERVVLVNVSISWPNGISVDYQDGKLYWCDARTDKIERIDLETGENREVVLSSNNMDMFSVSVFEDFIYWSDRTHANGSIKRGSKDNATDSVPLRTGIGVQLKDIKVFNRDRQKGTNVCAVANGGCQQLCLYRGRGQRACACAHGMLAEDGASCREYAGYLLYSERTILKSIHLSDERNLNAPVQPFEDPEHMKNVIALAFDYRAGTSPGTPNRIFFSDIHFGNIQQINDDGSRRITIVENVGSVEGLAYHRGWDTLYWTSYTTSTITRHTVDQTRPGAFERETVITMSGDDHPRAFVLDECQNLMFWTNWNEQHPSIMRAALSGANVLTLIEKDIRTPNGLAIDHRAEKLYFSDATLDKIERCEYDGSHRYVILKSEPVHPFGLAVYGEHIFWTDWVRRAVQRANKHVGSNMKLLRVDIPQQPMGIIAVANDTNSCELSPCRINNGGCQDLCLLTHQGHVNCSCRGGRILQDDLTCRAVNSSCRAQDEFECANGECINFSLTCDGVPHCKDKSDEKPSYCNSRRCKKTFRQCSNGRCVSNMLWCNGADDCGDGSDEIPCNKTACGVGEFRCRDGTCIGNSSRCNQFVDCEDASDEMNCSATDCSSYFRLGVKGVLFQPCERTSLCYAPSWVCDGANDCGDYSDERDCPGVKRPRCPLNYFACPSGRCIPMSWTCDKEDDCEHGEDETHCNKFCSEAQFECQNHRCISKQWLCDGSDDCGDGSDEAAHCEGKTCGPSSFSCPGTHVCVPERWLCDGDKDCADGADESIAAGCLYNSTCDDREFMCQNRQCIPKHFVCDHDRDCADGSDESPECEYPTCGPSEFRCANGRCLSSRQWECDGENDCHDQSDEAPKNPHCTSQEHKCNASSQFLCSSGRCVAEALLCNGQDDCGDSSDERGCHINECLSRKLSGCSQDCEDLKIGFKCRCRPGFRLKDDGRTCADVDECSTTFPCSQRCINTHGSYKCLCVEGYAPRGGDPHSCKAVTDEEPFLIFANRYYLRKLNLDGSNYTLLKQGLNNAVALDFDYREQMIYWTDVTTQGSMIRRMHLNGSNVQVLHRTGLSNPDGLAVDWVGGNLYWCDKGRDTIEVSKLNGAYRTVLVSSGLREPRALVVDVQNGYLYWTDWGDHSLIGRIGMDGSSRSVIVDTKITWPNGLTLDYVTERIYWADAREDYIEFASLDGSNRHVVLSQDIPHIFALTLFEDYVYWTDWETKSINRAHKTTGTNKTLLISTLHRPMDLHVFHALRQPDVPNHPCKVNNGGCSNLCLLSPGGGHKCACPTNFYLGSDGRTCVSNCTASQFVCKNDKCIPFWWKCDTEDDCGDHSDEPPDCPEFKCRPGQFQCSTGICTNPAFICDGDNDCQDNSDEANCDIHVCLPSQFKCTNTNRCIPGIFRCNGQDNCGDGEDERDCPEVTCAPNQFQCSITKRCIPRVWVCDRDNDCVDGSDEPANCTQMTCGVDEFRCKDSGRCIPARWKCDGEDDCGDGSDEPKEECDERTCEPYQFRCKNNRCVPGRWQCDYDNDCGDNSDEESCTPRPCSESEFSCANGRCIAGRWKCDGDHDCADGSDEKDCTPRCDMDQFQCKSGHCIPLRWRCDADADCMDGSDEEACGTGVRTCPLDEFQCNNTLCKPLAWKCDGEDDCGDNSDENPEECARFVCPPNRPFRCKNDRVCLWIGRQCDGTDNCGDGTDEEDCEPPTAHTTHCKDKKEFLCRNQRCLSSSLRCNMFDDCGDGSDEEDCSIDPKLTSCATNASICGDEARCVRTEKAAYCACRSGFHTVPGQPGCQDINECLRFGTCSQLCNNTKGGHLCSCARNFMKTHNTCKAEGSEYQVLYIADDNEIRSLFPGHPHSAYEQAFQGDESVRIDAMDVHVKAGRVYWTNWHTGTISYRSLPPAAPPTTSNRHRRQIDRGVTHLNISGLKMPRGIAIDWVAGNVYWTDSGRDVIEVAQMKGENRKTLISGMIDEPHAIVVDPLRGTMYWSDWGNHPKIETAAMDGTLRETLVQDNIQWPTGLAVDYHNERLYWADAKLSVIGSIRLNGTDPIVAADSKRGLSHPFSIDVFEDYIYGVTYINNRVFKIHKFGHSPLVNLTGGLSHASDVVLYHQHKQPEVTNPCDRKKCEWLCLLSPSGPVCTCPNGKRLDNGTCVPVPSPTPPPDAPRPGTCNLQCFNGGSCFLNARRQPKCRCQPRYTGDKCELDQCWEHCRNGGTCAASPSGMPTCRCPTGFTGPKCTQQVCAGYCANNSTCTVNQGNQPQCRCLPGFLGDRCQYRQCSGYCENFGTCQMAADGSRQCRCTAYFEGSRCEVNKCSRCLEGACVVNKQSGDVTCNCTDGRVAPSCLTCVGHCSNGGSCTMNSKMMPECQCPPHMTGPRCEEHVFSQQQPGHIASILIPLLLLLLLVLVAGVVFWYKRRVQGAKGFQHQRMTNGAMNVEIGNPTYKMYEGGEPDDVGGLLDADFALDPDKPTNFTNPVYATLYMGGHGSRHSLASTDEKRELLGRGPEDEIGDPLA
T9 sequence (chain, as listed by the source limits assumed): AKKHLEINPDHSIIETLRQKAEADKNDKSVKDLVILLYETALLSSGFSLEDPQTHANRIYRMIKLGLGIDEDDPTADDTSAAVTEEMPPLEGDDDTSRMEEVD

B1: IKKα (enzyme, human, UniProt O15111 1-745, looked up)
single chain: MERPPGLRPGAGGPWEMRERLGTGGFGNVCLYQHRELDLKIAIKSCRLELSTKNRERWCHEIQIMKKLNHANVVKACDVPEELNILIHDVPLLAMEYCSGGDLRKLLNKPENCCGLKESQILSLLSDIGSGIRYLHENKIIHRDLKPENIVLQDVGGKIIHKIIDLGYAKDVDQGSLCTSFVGTLQYLAPELFENKPYTATVDYWSFGTMVFECIAGYRPFLHHLQPFTWHEKIKKKDPKCIFACEEMSGEVRFSSHLPQPNSLCSLVVEPMENWLQLMLNWDPQQRGGPVDLTLKQPRCFVLMDHILNLKIVHILNMTSAKIISFLLPPDESLHSLQSRIERETGINTGSQELLSETGISLDPRKPASQCVLDGVRGCDSYMVYLFDKSKTVYEGPFASRSLSDCVNYIVQDSKIQLPIIQLRKVWAEAVHYVSGLKEDYSRLFQGQRAAMLSLLRYNANLTKMKNTLISASQQLKAKLEFFHKSIQLDLERYSEQMTYGISSEKMLKAWKEMEEKAIHYAEVGVIGYLEDQIMSLHAEIMELQKSPYGRRQGDLMESLEQRAIDLYKQLKHRPSDHSYSDSTEMVKIIVHTVQSQDRVLKELFGHLSKLLGCKQKIIDLLPKVEVALSNIKEADNTVMFMQGKRQKEIWHLLKIACTQSSARSLVGSSLEGAVTPQTSAWLPPTSAEHDHSLSCVVTPQDGETSAQMIEENLNCLGHLSTIIHEANEEQGNSMMNLDWSWLTE
notes: endogenous, in cells; partner of CD91 in the proximity ligation assay
B1: binds [1].

B2: Clone-2-chimera anti-HSP90α antibody (antibody, V domains shown)
VH: EVQVVESGGGLVQPKGSLKLSCAASGFTFKTYAMNWVRQAPGKGLEWVARIRSKSRNYATYYADSVKDRFTISRDDSQFMFYLQMNNLKTEDTAMYYCVVGGSGFDYWGQGTTLTVSS
VL: DVLMTQTPLSLPVSLGDQASISCRSSQSIVHSNGNTYLEWYLQKPGQSPKLLIYKVSNRFSGVPDRFSGSGSGTDFTLSISRVEAGDLGVYYCFQGSHVPWTFGGGTKLEIK
notes: Clone-2 VH and VL joined to human IgG1 constant region (pFUSEss-CHIg-hG1e1; Fc with mutations at Q250T, E356D, M358L, L428M) and human κ constant region (pFUSE2ss-CLIg-hk); expressed in ExpiCHO cells
B2 was tested, and the koff [2] was 6.7e-05 s⁻¹, the kon [2] was 711000 M⁻¹ s⁻¹ and the binding result [3] was “no binding”. B2: no binding [4]; no binding [5]; no binding [6]. For the same binder, the binding result [7] was “no binding”, the binding result [8] was “no binding” and the Kd [9] was 0.094 nM.

B3: Clone-2 anti-HSP90α antibody (mouse monoclonal) (antibody, V domains shown)
VH: B2 VH
VL: B2 VL
notes: Mouse hybridoma antibody, IgG2b isotype with κ light chains; First tested as culture supernatant, then purified; also called Clone-2 antibody; parental Clone-2
B3: no binding [10].

B4: HH01 anti-HSP90α antibody (Clone-2-hA) (antibody, V domains shown)
VH: B2 VH with V4L, K15G, K19R, K43Q, Q78K, F79N, M80Q, K89R, M95V
VL: B2 VL with L3V, K50Q, S79T, R82S, G86E
notes: expressed in ExpiCHO cells; also called HH01 antibody
With B4 the koff [2] was 0.000137 s⁻¹, the kon [2] was 729000 M⁻¹ s⁻¹ and the binding result [11] was “no binding”. The binding result [12] was “no binding”, the binding result [13] was “no binding” and the Kd [9] was 0.187 nM.
